Broadly, the stoichiometry N is a count of units in the complex or per binding partner.

Consider five molecules from paper PMC1888833 (Nucleic Acids Research, 2007).

The target of one data set is HpDnaBWt (Helicobacter pylori, UniProt O25916). The conditions noted are these: labelled compound; pH 7.5, 4 °C, UV 254 nm.
For another data set, the target named is HpDnaBDelN3 (Helicobacter pylori, UniProt O25916). The conditions noted are these: labelled compound; pH 7.5, 4 °C, UV 254 nm.
The data set “SEC” concerns the molecule itself. Description: SEC.

Numbering of substitutions follows the chain as printed.

For `Nc1ncnc2c1ncn2[C@@H]1O[C@H](COP(=O)(O)OP(=O)(O)OP(=O)(O)O)[C@@H](O)[C@H]1O` [∝-32PATP], the “UV cross-linking, SDS-PAGE, phosphorimager” value on HpDnaBWt was “Wild-type, DelN2 and DelN3 showed ATP binding”; at HpDnaBDelN3 it was “Wild-type, DelN2 and DelN3 showed ATP binding”.

B1: HpDnaBDelN3 (N-terminal deletion mutant N3 of HpDnaB, lacking 174 N-terminal residues) (domain or fragment)
chain: EVTGIPTGFVQLDNYTSGFNKGSLVIIGARPSMGKTSLMMNMVLSALNDDRGVAVFSLEMSAEQLALRALSDLTSINMHDLESGRLDDDQWENLAKCFDHLSQKKLFFYDKSYVRIEQIRLQLRKLKSQHKELGIAFIDYLQLMSGSKATKERHEQIAEISRELKTLARELEIPIIALVQLNRSLENRDDKRPILSDIKDSGGIEQDADIVLFLYRGYIYQMRAEDNKIDKLKKEGKIEEAQELYLKVNEERRIHKQNGSIEEAEIIVAKNRNGATGTVYTRFNAPFTRYEDMPIDSHLEEGQETKVDYDIVTT
For B1, the “stoichiometry N” value in the data set “SEC” was 2.

B2: Helicobacter pylori DnaB helicase, wild-type, full-length (enzyme, Helicobacter pylori (strain 26695), UniProt O25916 1-488, looked up)
chain: MDHLKHLQQLQNIERIVLSGIVLANHKIEEVHSVLEPSDFYYPPNGLFFEIALKLHEEDCPIDENFIRQKMPKDKQIKEEDLVAIFAASPIDNIEAYVEEIKNASIKRKLFGLANTIREQALESAQKSSDILGAVEREVYALLNGSTIEGFRNIKEVLESAMDLITENQRKGSLEVTGIPTGFVQLDNYTSGFNKGSLVIIGARPSMGKTSLMMNMVLSALNDDRGVAVFSLEMSAEQLALRALSDLTSINMHDLESGRLDDDQWENLAKCFDHLSQKKLFFYDKSYVRIEQIRLQLRKLKSQHKELGIAFIDYLQLMSGSKATKERHEQIAEISRELKTLARELEIPIIALVQLNRSLENRDDKRPILSDIKDSGGIEQDADIVLFLYRGYIYQMRAEDNKIDKLKKEGKIEEAQELYLKVNEERRIHKQNGSIEEAEIIVAKNRNGATGTVYTRFNAPFTRYEDMPIDSHLEEGQETKVDYDIVTT
Turning to B2, in the data set “SEC”, the “stoichiometry N” value was 6.

B3: HpDnaBMut (ATP binding site mutant, R204 to C in the WALKER A domain) (enzyme, Helicobacter pylori (strain 26695), UniProt O25916 1-488, looked up)
chain: B2 chain with R204C
With B3, in the data set “SEC”, the “stoichiometry N” value amounted to 6.

B4: HpDnaBDelN2 (N-terminal deletion mutant N2 of HpDnaB, lacking 133 N-terminal residues) (domain or fragment)
chain: AVEREVYALLNGSTIEGFRNIKEVLESAMDLITENQRKGSLEVTGIPTGFVQLDNYTSGFNKGSLVIIGARPSMGKTSLMMNMVLSALNDDRGVAVFSLEMSAEQLALRALSDLTSINMHDLESGRLDDDQWENLAKCFDHLSQKKLFFYDKSYVRIEQIRLQLRKLKSQHKELGIAFIDYLQLMSGSKATKERHEQIAEISRELKTLARELEIPIIALVQLNRSLENRDDKRPILSDIKDSGGIEQDADIVLFLYRGYIYQMRAEDNKIDKLKKEGKIEEAQELYLKVNEERRIHKQNGSIEEAEIIVAKNRNGATGTVYTRFNAPFTRYEDMPIDSHLEEGQETKVDYDIVTT
On to B4, for which, in the data set “SEC”, the “stoichiometry N” value is 6.
